Assays:
[1] = target: T1, isolated enoyl reductase (ER) domain of squalestatin tetraketide synthase (SQTKS) (Phoma sp. C2932, UniProt Q86ZD9); experiment: inhibition of turnover of tigloyl pantetheine 5P; format: biochemical; conditions: substrate 5P, NADPH; inhibitor, not reduced
T1 construct: gene pks1; isolated ER domain only, his6-tagged, from synthetic codon-optimised phpks1, expressed in E. coli; dimer; exact borders in ESI (model begins at G1886)
T1 sequence (Q86ZD9 1887-2207 limits assumed): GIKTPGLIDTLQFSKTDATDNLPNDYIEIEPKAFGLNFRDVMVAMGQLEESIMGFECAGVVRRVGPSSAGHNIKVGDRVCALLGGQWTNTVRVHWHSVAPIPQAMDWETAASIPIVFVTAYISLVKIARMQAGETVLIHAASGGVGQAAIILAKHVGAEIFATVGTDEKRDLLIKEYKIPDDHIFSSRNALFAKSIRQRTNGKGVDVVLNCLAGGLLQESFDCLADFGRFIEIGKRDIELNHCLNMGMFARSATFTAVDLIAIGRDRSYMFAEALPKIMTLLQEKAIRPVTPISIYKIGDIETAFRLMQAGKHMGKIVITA

[2] = substrate: C/C=C(\C)C(=O)SCCNC(=O)CCNC(=O)[C@H](O)C(C)(C)CO; experiment: purified protein, by the assay type; design: continuous spectrophotometric assay, NADPH consumption at 340 nm, initial rates fitted to Michaelis-Menten; conditions: 30.0 °C
[3] = substrate: CCC(C)CC(C)/C=C/C(=O)SCCNC(=O)CCNC(=O)[C@H](O)C(C)(C)CO; experiment: purified protein, by the assay type; design: continuous spectrophotometric assay, NADPH consumption at 340 nm, initial rates fitted to Michaelis-Menten; conditions: 30.0 °C
[4] = substrate: C/C=C(/C)C(=O)SCCNC(=O)CCNC(=O)[C@H](O)C(C)(C)CO; experiment: purified protein, by the assay type; design: continuous spectrophotometric assay, NADPH consumption at 340 nm, initial rates fitted to Michaelis-Menten; conditions: 30.0 °C
[5] = substrate: CCC/C=C(\C)C(=O)SCCNC(=O)CCNC(=O)[C@H](O)C(C)(C)CO; experiment: purified protein, by the assay type; design: continuous spectrophotometric assay, NADPH consumption at 340 nm, initial rates fitted to Michaelis-Menten; conditions: 30.0 °C
[6] = substrate: C/C=C(\CC)C(=O)SCCNC(=O)CCNC(=O)[C@H](O)C(C)(C)CO; experiment: purified protein, by the assay type; design: continuous spectrophotometric assay, NADPH consumption at 340 nm, initial rates fitted to Michaelis-Menten; conditions: 30.0 °C
[7] = substrate: CCC/C=C/C(=O)SCCNC(=O)CCNC(=O)[C@H](O)C(C)(C)CO; experiment: purified protein, by the assay type; design: continuous spectrophotometric assay, NADPH consumption at 340 nm, initial rates fitted to Michaelis-Menten; conditions: 30.0 °C
[8] = substrate: CCCC/C=C/C(=O)SCCNC(=O)CCNC(=O)[C@H](O)C(C)(C)CO; experiment: purified protein, by the assay type; design: continuous spectrophotometric assay, NADPH consumption at 340 nm, initial rates fitted to Michaelis-Menten; conditions: 30.0 °C
[9] = substrate: CC(C)CC/C=C/C(=O)SCCNC(=O)CCNC(=O)[C@H](O)C(C)(C)CO; experiment: purified protein, by the assay type; design: continuous spectrophotometric assay, NADPH consumption at 340 nm, initial rates fitted to Michaelis-Menten; conditions: 30.0 °C
[10] = substrate: CCC(C)/C=C/C(=O)SCCNC(=O)CCNC(=O)[C@H](O)C(C)(C)CO; experiment: purified protein, by the assay type; design: continuous spectrophotometric assay, NADPH consumption at 340 nm, initial rates fitted to Michaelis-Menten; conditions: 30.0 °C
[11] = substrate: CCCCC/C=C/C(=O)SCCNC(=O)CCNC(=O)[C@H](O)C(C)(C)CO; experiment: purified protein, by the assay type; design: continuous spectrophotometric assay, NADPH consumption at 340 nm, initial rates fitted to Michaelis-Menten; conditions: 30.0 °C
[12] = substrate: CC[C@H](C)/C=C(\C)C(=O)SCCNC(=O)CCNC(=O)[C@H](O)C(C)(C)CO; experiment: purified protein, by the assay type; design: continuous spectrophotometric assay, NADPH consumption at 340 nm, initial rates fitted to Michaelis-Menten; conditions: 30.0 °C
[13] = substrate: CCC/C=C(\CC)C(=O)SCCNC(=O)CCNC(=O)[C@H](O)C(C)(C)CO; experiment: purified protein, by the assay type; design: continuous spectrophotometric assay, NADPH consumption at 340 nm, initial rates fitted to Michaelis-Menten; conditions: 30.0 °C
[14] = substrate: CC(C)CCC/C=C/C(=O)SCCNC(=O)CCNC(=O)[C@H](O)C(C)(C)CO; experiment: purified protein, by the assay type; design: continuous spectrophotometric assay, NADPH consumption at 340 nm, initial rates fitted to Michaelis-Menten; conditions: 30.0 °C

CC[C@H](C)C[C@H](C)/C=C/C(=O)SCCNC(=O)CCNC(=O)[C@H](O)C(C)(C)CO [1P, squalestatin tetraketide pantetheine] was tested, and the “inhibition of turnover of tigloyl pantetheine 5P” value [1] was “it does act as an inhibitor of the ER in vitro”.

B1: isolated enoyl reductase (ER) domain of squalestatin tetraketide synthase (SQTKS) (Phoma sp. C2932) (protein)
chain: GIKTPGLIDTLQFSKTDATDNLPNDYIEIEPKAFGLNFRDVMVAMGQLEESIMGFECAGVVRRVGPSSAGHNIKVGDRVCALLGGQWTNTVRVHWHSVAPIPQAMDWETAASIPIVFVTAYISLVKIARMQAGETVLIHAASGGVGQAAIILAKHVGAEIFATVGTDEKRDLLIKEYKIPDDHIFSSRNALFAKSIRQRTNGKGVDVVLNCLAGGLLQESFDCLADFGRFIEIGKRDIELNHCLNMGMFARSATFTAVDLIAIGRDRSYMFAEALPKIMTLLQEKAIRPVTPISIYKIGDIETAFRLMQAGKHMGKIVITA
notes: isolated ER domain only, his6-tagged, from synthetic codon-optimised phpks1, expressed in E. coli; dimer; exact borders in ESI (model begins at G1886)
B1 showed a Km [2] of 0.69 µM, a kcat [2] of 8.9 s⁻¹ and a kcat/Km [2] of 1.29e+07 M⁻¹ s⁻¹. It also gave a Km [3] of 0.18 µM, a kcat [3] of 2 s⁻¹ and a kcat/Km [3] of 1.11e+07 M⁻¹ s⁻¹. It also gave a Km [4] of 0.44 µM, a kcat [4] of 11.4 s⁻¹ and a kcat/Km [4] of 2.59e+07 M⁻¹ s⁻¹. For the same molecule, the Km [5] was 0.54 µM, the kcat [5] was 415 s⁻¹ and the kcat/Km [5] was 7.68e+08 M⁻¹ s⁻¹. For the same molecule, the Km [6] was 0.16 µM, the kcat [6] was 2.58 s⁻¹ and the kcat/Km [6] was 1.61e+07 M⁻¹ s⁻¹. For the same molecule, the Km [7] was 0.23 µM, the kcat [7] was 25.9 s⁻¹ and the kcat/Km [7] was 1.13e+08 M⁻¹ s⁻¹. For the same molecule, the Km [8] was 0.18 µM, the kcat [8] was 7.11 s⁻¹ and the kcat/Km [8] was 3.95e+07 M⁻¹ s⁻¹. For the same molecule, the Km [9] was 0.52 µM, the kcat [9] was 5.6 s⁻¹ and the kcat/Km [9] was 1.08e+07 M⁻¹ s⁻¹. The Km [10] was 0.18 µM, the kcat [10] was 5.9 s⁻¹ and the kcat/Km [10] was 3.28e+07 M⁻¹ s⁻¹. It also gave a Km [11] of 0.6 µM, a kcat [11] of 9 s⁻¹ and a kcat/Km [11] of 1.5e+07 M⁻¹ s⁻¹. For the same molecule, the Km [12] was 0.41 µM, the kcat [12] was 48.8 s⁻¹ and the kcat/Km [12] was 1.19e+08 M⁻¹ s⁻¹. It also gave a Km [13] of 0.19 µM, a kcat [13] of 4.71 s⁻¹ and a kcat/Km [13] of 2.48e+07 M⁻¹ s⁻¹. For the same molecule, the Km [14] was 4.70 µM, the kcat [14] was 0.85 s⁻¹ and the kcat/Km [14] was 200000 M⁻¹ s⁻¹.

From article PMC5369529, “Substrate selectivity of an isolated enoyl reductase catalytic domain from an iterative highly reducing fungal polyketide synthase reveals key components of programming” (Chemical Science, 2016)
